{
  "source": "a protein production outcome set (Wang et al. 2014)",
  "assay": "label from the status in PepcDB records",
  "data": [
    {"sequence": "MTLGLKDLYYAVCTEADGAESYGTPKKMAEAMSADLSVKTADGSLYADDTLSESVTEFASGTLKLGIKDLTPEVLAELLGQAVDKNSVVWAGKEDEPPYVAVGFRAKKTGGKYRYVWLLKAKFKVPSEKYETKGESIKFNTPDIEASFTTRKKDNLWKADFVGTEESAAAKTWFTAVPEKAAAMESVLEHHHHHH", "values": [
      {"measurement": "protein production", "value": "not failed"}
    ]},
    {"sequence": "MTLHEHTDEETAEHNLPSKSSGSTRRLALVAVVNFFGFVIELAGGLLFGSVALISDALHMLFDMLAYAMAFGASYTAERFEGGEAWSYGLHRLEPVAAFLNGVLLLPMVGYIVWESYQRFLEPVAINPELTLIIATGGLLVNIGSVYVLQGGEMSLNERGAFYHLLGDAGGSVAVIVSTAAVAVFDLPIADPVAAVLIGLLVLASAGNVLRESTSILLERSPVSSEELRDELTTLDGVDQIEDLHVWQVCSQLTVATVRLTDTSTTLEEQRRIQSRVHDYLTNRGIDHATVELVGRTDPDTDPVGTTNHSH", "values": [
      {"measurement": "protein production", "value": "failed"}
    ]},
    {"sequence": "MTLISRILGLVRDVVIASLLGAGAMSDVFLFANRIPNFLRRLFAEGAFSKAFVPVLAEYNADNDLDKTREFIAKVSGTLGLLVTVVTLVAMLISPIIAALFGTGWFIDWFNDGPDAQKFTQASLLLKITFPYLWFITFIALSGAVLNTIGKFGVMAFSPVLLNVAMISMALFGADYFEQPDIALAWGIFLGGLLQFLFQIPFMIKERLLVKPKWAWKDEGVTKVRRLMIPALFGVSVTQINLLLNQVIASFLVTGSITWLYYSDRLIEFPLGLFGIAISTVVLPNLSRITKKKALNEEQRAIAFKQTLDWGVRMVVALGIPAMVGIAILAQPLIMTIFMRGKFVLADVIATSHALWIMCLGLNSYMLISVLANGFYARQNTKTPVKIGIIATIANICFGVLAIPFGYLGLAMASALSAAVNASLLYYNLVKEQAYCLSKKTVIFILKVAISACAMGVLVSYFSPTLTDWYAMKMWLKVHWLVWLISLAAISYFAVLMVLGIRKQDFRA", "values": [
      {"measurement": "protein production", "value": "failed"}
    ]},
    {"sequence": "MTLKLIGAGFGRTGTWSTFAALNRLGLPCYHMQEVIMNKANKGHLDFWRKVANSPPGSQHDWNRVFANYTATVDNPGCCVWKELLAAYPDAKVLLTLHPRGAEAWYESTIDTIYFTENVWQFKILEWLTPFGWKFGDMSRKLIWGRTLDGVMNDRAKAVARYNTYVEQVKAAVPPHKLLVYKVTEGWAPLCDFLGVALPNEPFPNLNDRETIKKIIRDIIKGSYIMLGLAIAAIVAVVAALWWWLG", "values": [
      {"measurement": "protein production", "value": "failed"}
    ]},
    {"sequence": "MTLLRDHDLARAFDHASHTYDGLTALNPGYRTGLLRSARRLALPADGAGLHLLDLGCGTGASTRALLRAAPRARITAVDASAGMLRRALVKPWPARVRFLHLTAEEFATTREDEGPFDAVFAAYLFRNVTDPDAVLRAVRQLLRPGGRFAAHEYSLSGSPGHRALWSAVCRGVVIPAGTLTGDRTLYRHLRRSVVAFDTAPEFAARLTRAGLTSVRVAPVAGWQTGIVHTFLARNGGPTTTEERVL", "values": [
      {"measurement": "protein production", "value": "failed"}
    ]},
    {"sequence": "MTLSFFRPRARKVTAAVLLMTWLAPVSPLALAQPASVPAAPAGAAAAEQVQSNLNRSVQIGRQSPYLQKDATIIDAPTYELPDMGDPSTAALSPEMERRLGDRVMRQIRRDPDYVPDPLLSDYLNDIGYRLIEAARRQHVAGSTSASSFELFAVRDPGINAFALPGGYIGVNTGTLVATESESELASVLGHEIGHVLQRHIARGIDKSGESMWIALASILLAGLAATKSGDAAQALAVGGQAAAVSNQLAFSRGAEREADRVGFTLLTGAGYNPDGMPDFFRRLQRVSSIADTGAVPGYARTHPLTGERIADMEDRARGLPHPRQPQRPAFGFAKARARVLQETSTSAYLDVRNAMRSQLASAPDAPAEKRAALWYGIAVAEQLAGQLDPAEQALLEARRLYGNIPGLTSGSPSLDVTAIELARARNRVPEALTMARAALAAYPLSRAVGITYAQTLLAAGRAGDAIPYLQDKAREDTAQPIWWDMLARAYADQGKRVEQHRALAEKYARDGAWGAAVEQLKLARDAGDADFYTLSEVDARLHQMERQYREEKQEEKALPK", "values": [
      {"measurement": "protein production", "value": "failed"}
    ]},
    {"sequence": "MTLSKQLKTYITERFKLNYQDTWSCETVDAVAEDVLPEKYIKNSPLEHKILNTFTYYNDELHEISIYPFLCYLDKELIAIGYLDNFDLDFIFLNDTHQIIIDERYLLQKGGELEHHHHHH", "values": [
      {"measurement": "protein production", "value": "failed"}
    ]},
    {"sequence": "MTLTMGFIGFGKSANRYHLPYVNTRKNIKVKTIFARQINEELAAPYEEKGVSFTTNLDELLNDKEIQVVTVCTPAHTHYELAKKVILAGKSVIVEKPFCDTVEHAKELLALGREKGVVVMPYQNRRFDGDFLAVKQVVEQGFLGDIVEVESHIDYFRPGSINHEGPKEEGSFYSLGIHTMDRMISLFGRPDTVTYDIRNNEVDGAVDNYFDVGLHYGNQLKIKLKTNHVVAKDYPRFIVHGTNGSFIKYGEDQQENDLKAGIMPESAGFGEDSPMYYGIAKYRNANGDWIEKQIKTPLGDYGRFYDAAYETIVNGAPKLVKDEEAVTNIEILENGFAAPSPSVYKLEALNLNE", "values": [
      {"measurement": "protein production", "value": "failed"}
    ]},
    {"sequence": "MTLTPEAEIALFLRRLKWAAVIVGVLWVVSLLAPILTPFVLALLLAWLGDPLVDRIERAGRSRNVAVVLVFVLATLLFVLALMILVPMIERQIMTLIDALPQMRNWAIGTAIPWLEAKTGMQLMAWLDPERLIDWIRSHWEQAGGAAKTLFGYVSRSGFAMVTWVINLALLPILAFYFLRDWDRLVERVAAVIPRAYIGTASRLAQESNDVLGGFIRGQFLVMLALGAIYATGMSIIGLNLGLLIGIIAGLISFIPYLGATTGIVLALLAAIVQAQGLDLKLLIGVGVVFTVGQLLESYVLTPRIVGDKIGLHPVAVIFAVMAGGQLFGFLGMLLALPVAAVANVLLRYAHEQYTRSDLYAGERAGIVLRSTPERSVIIDPSKDADRL", "values": [
      {"measurement": "protein production", "value": "failed"}
    ]},
    {"sequence": "MTLVEFPAITFAAVVCWAVGSLLQIPAKNSKVSGPLSWLFLFSGTLVLVWFLASYWIALDRPPLRTLGETRLWYATLIPVVGFLVEYRYKIGWLKYYCMGLATVFLGINYMHPDVFEKALMPALQSPWFVPHVVVYLVGYVLLAASAVSGWHNVFLNFRGKRSAKGESMAHYLALLGFVLLTFGLIFGALWAKEAWGHYWTWDPKETWAFISWLAYLGYLHLVACKTDPRKLQWYLGLAFFVLLVCWFGVNYLPSAQNSVHTYSGAS", "values": [
      {"measurement": "protein production", "value": "failed"}
    ]},
    {"sequence": "MTMAVGTFKQSRFQLPLPRLSVMDRYLFVELFLPFIFGMGMFTSLALSIGTLFDLVRRVTESGLPMDIAVKILFLKMPEFVVLAFPMSMLLASLMAYSRLSSDSELIALRSIGVSIYRLVVPALLFGIVVTGIAFVFNDRITPAASYEALATLDRAIHQDRPPRQEQNIIYPEYGMVRQPDGNEKNILKRLFYAEEFNGSEMKGLTILDRTQSGVNQVLTAERASWNISENTWDFYDGTVYLIAPDGSYRNIVRFRHQQLALPRAPLDLASQERKDGEMTIAQSRRYLEVLRLSGDDKKVRKLEVRIQKKYALPFVCFVFGLIGAAIGVRPQNTNKATSFGICVGLIFFYYLLSFLSESMGIWGALDPFTAAWLPNFLGLIAGTILLVQSSRLR", "values": [
      {"measurement": "protein production", "value": "failed"}
    ]},
    {"sequence": "MTMDNFSIRPMKRSELDVVIDWAAIEGWNPGIYDAECFYQADQCGFFVGELNNELVASISAVAYSQHFAVIGFYIVKEQFRGRGFGMKMWRTAMAYLGSERNISLDGVIAQQENYKKSGFQIAYRHIRYQV", "values": [
      {"measurement": "protein production", "value": "failed"}
    ]},
    {"sequence": "MTMEALQFLLAAPPGAYDPVARTIEDEPRPSQPPTSALALDIRGLRKSFGDNDVLRGIDLHIPAGQFVTIVGRSGCGKSTLLRLIAGLETPTAGHIVFGEDKLPGDVRVMFQEPRLLPWARVLANVEVGLGTERNSPDARARADAALIEVGLDDKRGEWPAVLSGGQKQRVALARALVSRPRVLAFDEPLGALDALTRIAMQRLLEQVWQAQGFTAILVTHDVAEAVALADRVLVIEDGRIAKDLPIDLPRPRQRGSAELAALEGEILRDLLKGAEDTFEL", "values": [
      {"measurement": "protein production", "value": "failed"}
    ]},
    {"sequence": "MTMIEPDPADFEPIHPYSLARISHVALQAGAVLAQSGASVRVVHEGARMVAEGLGVEVLGMRSGYASFEITLARGHHSFTRMTQIGPHGVNHRLDFAVRDLLKRAARGDMTPDAIEAELKRLQSETPRHPPWLVAIATGAACAAFGRLLGSDWLSFGPVLAAASIGQGVRHLLLGRRFNVFVVAAIVGCISAALGGLGARLIGSSTTELAMMASILLLVPGVPSTNAQTDVMDGYPTMGSARAVTVIMIMVFAVTGLWLAEFVLRIHT", "values": [
      {"measurement": "protein production", "value": "failed"}
    ]},
    {"sequence": "MTMITFSARLAPFQPETVWTLEAGTLIETRGRIERRFPLSSLTRYSLSLAPDGRRRVLLVVFGRRRLLIPSQSYVGPGRFEDRLAAFSVLARALAAVGADLSPRARFGLARLEARTALTFVMGLLAFGAASTLLFSLTAGMVAVGVDLAARMAFVLILMVAALPWLARPADFDPRDPPADLLP", "values": [
      {"measurement": "protein production", "value": "failed"}
    ]}
  ]
}
